Reference: patent EP4796130A1, “ANTI-TISSUE FACTOR ANTIBODY-DRUG CONJUGATE COMPRISING CAMPTOTHECIN DERIVATIVE” (Celltrion, Inc., priority 2023, dated 2025)

Tested on: HPAFII (human pancreatic cancer xenograft model)
Experiment: In vivo antitumor efficacy, HPAFII xenograft model
Design: species or system CB17 SCID mice
Settings: 3 mg/kg i.v. QW × 3

B1: Isotype-MMAE: ADC in which anti-influenza A antibody (Navivumab, P23) is conjugated with MMAE (MC-vc-PAB-MMAE); DAR 4 (conjugate, chains of the INN, looked up)
VH: QVQLVQSGAEVKKPGASVKVSCKTSGYSFSTYGVSWVRQAPGQGPEWVGWISAYTGITDYAQKFQGRVTLTTDATTATAFLDLRSLRPDDTATYFCARDKVQGRVEVGSGGRHDYWGQGTLVIVSS
VL: EVVLTQSPGTLALPPGERATLSCRASHRVGSTYIAWYQQKSGQAPRRLIYGASNRATDIPDRFSGSGSGTDFTLTIRRLEPEDSAVYYCQQFSVSPWTFGQGTRVEIK
modifications: mc-vc-PAB-MMAE payload, DAR 4
Day 0, mean ± SEM
  Tumor Volume: 235 ± 17 mm^3
Day 4, mean ± SEM
  Tumor Volume: 357 ± 38 mm^3
Day 7, mean ± SEM
  Tumor Volume: 424 ± 46 mm^3
Day 11, mean ± SEM
  Tumor Volume: 603 ± 79 mm^3
Day 14, mean ± SEM
  Tumor Volume: 799 ± 98 mm^3
Day 28, mean ± SEM
  Tumor Volume: 2,142 ± 164 mm^3
Day 28 vs control group G1
  T/Cweight: 90.45%
  TGI: 10.01%
Mean ± SEM
  Tumor Weights on Day 28: 1.933 ± 0.177 g
Tumor volume on day 28 vs control group G1
  T/C: 90.99%
